Test results as given in publication PMC9643425, “Structural model for ligand binding and channel opening of an insect gustatory receptor” (The Journal of Biological Chemistry, 2022).
Where “and” joins values, the source holds several entries; their conditions need not be identical. Equal values may be shown once. Values belong to the compound of their own block, whether it stands above or below them.

Key:
[1] = target: meGFP-BmGr9 (Bombyx mori (silkworm)); test: single-molecule imaging, counting of photobleaching steps (TIRF microscopy); meGFP-BmGr9 on the plasma membrane of Xenopus oocytes; bleaching steps at single spots (n = 569) fitted with binomial distributions of tetramer, pentamer and hexamer models
BmGr9 = target: T1, BmGr9 (Bombyx mori, UniProt B3GTD7, I440C); test: two-electrode voltage clamp in Xenopus oocytes, […] MTSET, cysteine modification; type: cell-based
T1 construct: gene Gr9; full-length
T1 sequence (B3GTD7 1-449 I440C): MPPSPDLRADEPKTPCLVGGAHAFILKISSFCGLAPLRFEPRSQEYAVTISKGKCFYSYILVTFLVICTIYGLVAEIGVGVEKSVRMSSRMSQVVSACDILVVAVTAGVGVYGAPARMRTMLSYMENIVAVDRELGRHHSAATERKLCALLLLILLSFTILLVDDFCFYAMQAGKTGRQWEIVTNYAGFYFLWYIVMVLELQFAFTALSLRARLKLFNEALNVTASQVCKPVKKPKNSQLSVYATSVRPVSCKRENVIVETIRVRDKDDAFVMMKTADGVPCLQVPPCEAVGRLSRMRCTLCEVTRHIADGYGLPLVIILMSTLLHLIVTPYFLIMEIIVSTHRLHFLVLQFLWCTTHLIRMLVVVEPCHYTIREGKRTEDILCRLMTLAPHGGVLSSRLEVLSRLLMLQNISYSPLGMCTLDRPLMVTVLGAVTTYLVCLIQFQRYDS

[2] = target: BmGr9 silkworm gustatory receptor (Bombyx mori (silkworm)); test: cross-linking; HEK293T cells expressing BmGr9 incubated with various concentrations of disuccinimidyl suberate (DSS) at 37 °C for 15 min; lysed in 0.1% RIPA buffer; SDS-PAGE with 5 M urea; Western blot with anti-BmGr9 antibody

stoichiometry N [1]: 4
Compound: meGFP-BmGr9 (receptor)

Compound: C[N+](C)(C)CCSS(C)(=O)=O [MTSET, 2-(trimethylammonium)ethyl methanethiosulfonate, bromide]
two-electrode voltage clamp in Xenopus oocytes, 2.5 mM MTSET, cysteine modificat (BmGr9): whereas the response of I440C was markedly inhibited by MTSET application

stoichiometry N [2]: 2 and 4
Compound: BmGr9 silkworm gustatory receptor
